Results from US4844895A, “Composition containing a peptide fragment of platelet factor four and method for restoring suppressed immune responses” (New York University, priority 1987, dated 1989).

Key:
[1] = tested on: Con A-induced suppression; assay: Reversal of Con A-induced suppression of the splenic plaque-forming cell (PFC) response to SRBC in mice; format: in vivo; details: for Geom. Mean of PFC/Spleen On Day 5, Expt. 2 / Immunomodulatory activity against suppression induced by 5 μg Con A (result in words): LA-PF4 0.6 μg; for Immunomodulatory activity against suppression induced by 5 μg Con A (result in words): concentrations well below those in serum: PDGF 0.003 μg, purified PF4 0.2 to 0.6 μg per mouse; for Reversal of Con A-induced suppression (result in words): mice, PFC response to SRBC
Experimental: Concanavalin A (Miles--Yeda Ltd., Research Products, Israel) was reconstituted with saline and kept frozen. Dilutions from the frozen stock were stored at 4° C. and injected i.v. into mice one day prior to antigen, sheep erythrocytes (SRBC). SRBC were obtained from Colorado Serum Company (Denver, Colorado) washed, counted and injected intraperitoneally (i.p.) in mice. Human serum or platelet releasate was administered i.v. one to two hours before Con A i.v.
The spleens of the mice were assayed for plaque-forming cells (PFC) on day 5 after injection of sheep red blood cells. The assay employed was as follows: single-cell suspensions were prepared from individual spleens of mice. The cells were suspended in Hanks' Balanced Salt Solution (Gibco Laboratories, Grand Island, New York) and washed. Direct PFC were enumerated using the well-known method of Jerne, N.K. et al (in Cell-Bound Antibody, Amos, E. and Koprowsky, H. eds., Wistar Institute Press. pp. 109-111, […]) with the slide modification of Mishell, R.I. and Dutton, R.W. (J. Exp. Med. 126:423, 1967), both incorporated by reference. […]
When treated with thrombin or A23187 (Calcium ionophore), platelets also release alpha granule constituents other than PF4. In particular, they release LA-PF4 and PDGF. The inventors tested the ability of LA-PF4 and PDGF to overcome suppression induced by 5 μg Con A. […]
Mice were injected with 10 micrograms of Con A i.v. on day -1 (except in the positive control, which received no Con A) and on day 0 with 2.5×10^6 SRBC per mouse as in Example 2 above. On day -1, the mice also received either: Nothing (100% control), Con A only, platelet releasate (equivalent to the amount of PF4 holoprotein contained in the platelet releasate from 2×10^7 platelets or about 0.12 microgram/mouse) and various concentrations of the above-mentioned synthetic C-terminal peptide of human PF4.

PFC response to SRBC = PFC response to SRBC in mice not injected with Con A (adjuvant effect); design: species or system CB6F1 mouse; details: mouse, in vivo
Experimental: The spleens of the mice were assayed for plaque-forming cells (PFC) on day 5 after injection of sheep red blood cells. The assay employed was as follows: single-cell suspensions were prepared from individual spleens of mice. The cells were suspended in Hanks' Balanced Salt Solution (Gibco Laboratories, Grand Island, New York) and washed. Direct PFC were enumerated using the well-known method of Jerne, N.K. et al (in Cell-Bound Antibody, Amos, E. and Koprowsky, H. eds., Wistar Institute Press. pp. 109-111, […]) with the slide modification of Mishell, R.I. and Dutton, R.W. (J. Exp. Med. 126:423, 1967), both incorporated by reference.
In order to confirm and expand this finding, 1 ml o serum, diluted 1:2, was absorbed twice for thirty minutes at 4° C. using half the number of cells for each absorption as are listed for spleen (Sp1), lymphnode (LN) and thymus (Thy) in Table 3. Each CB6F1 mouse received 0.2 ml of a 1:4 dilution of absorbed or unabsorbed serum i.v. one to two hours before administration of 2×10^6 SRBC i.v. Plaque-forming cell response was measured as in Example 2.

[2] = 5 μg Con A, n = 4, PF4 0.2 to 0.6 μg per mouse

Molecule | Geom. Mean of PFC/Spleen On Day 5, Expt. 2 [1, 2] | Immunomodulatory activity against suppression induced by 5 μg Con A (result in words) [1] | Reversal of Con A-induced suppression (result in words) [1] | Enhancement of antibody (PFC) response without immunosuppressive agent (result in words) (PFC response to SRBC) | Geom. Mean of PFC/Spleen On Day 5, Expt. 3 ([1]; 5 μg Con A, n = 4, PF4 0.2 to 0.6 μg per mouse, PF4 + heparin mixture diluted 1:15, 0.2 ml per mouse)
LA-PF4: low-affinity platelet factor 4, platelet alpha-granule constituent (protein, UniProt P02775 44-128, looked up, Connective tissue-activating peptide III) Connective tissue-activating …: NLAKGKEESLDSDLYAELRCMCIKTTSGIHPKNIQSLEVIGKGTHCNQVEVIATLKDGRKICLDPDAPRIKKIVQKKLAGDESAD | 9,440 PFC/Spleen | a small amount | no significant immunomodulating activity |  | 
PF4: human platelet factor 4 purified from platelet releasate on heparin-agarose (protein, UniProt P02776 32-101, looked up) Platelet factor 4: EAEEDGDLQCLCVKTTSQVRPRHITSLEVIKAGPHCPTAQLIATLKNGRKICLDLQAPLYKKIIKKLLES | 22,910 PFC/Spleen | very marked activity | able to overcome Con A-induced suppression in a dose-dependent fashion | can also stimulate antibody formation even in mammals not treated with an immunosuppressive agent | 34,420 PFC/Spleen
